Target: the molecule itself
Experiment: native gel or EMSA

B1: hypochlorite-treated α2-macroglobulin (natural protein)
chain: SVSGKPQYMVLVPSLLHTETTEKGCVLLSYLNETVTVSASLESVRGNRSLFTDLEAENDVLHCVAFAVPKSSSNEEVMFLTVQVKGPTQEFKKRTTVMVKNEDSLVFVQTDKSIYKPGQTVKFRVVSMDENFHPLNELIPLVYIQDPKGNRIAQWQSFQLEGGLKQFSFPLSSEPFQGSYKVVVQKKSGGRTEHPFTVEEFVLPKFEVQVTVPKIITILEEEMNVSVCGLYTYGKPVPGHVTVSICRKYSDASDCHGEDSQAFCEKFSGQLNSHGCFYQQVKTKVFQLKRKEYEMKLHTEAQIQEEGTVVELTGRQSSEITRTITKLSFVKVDSHFRQGIPFFGQVRLVDGKGVPIPNKVIFIRGNEANYYSNATTDEHGLVQFSINTTNVMGTSLTVRVNYKDRSPCYGYQWVSEEHEEAHHTAYLVFSPSKSFVHLEPMSHELPCGHTQTVQAHYILNGGTLLGLKKLSFYYLIMAKGGIVRTGTHGLLVKQEDMKGHFSISIPVKSDIAPVARLLIYAVLPTGDVIGDSAKYDVENCLANKVDLSFSPSQSLPASHAHLRVTAAPQSVCALRAVDQSVLLMKPDAELSASSVYNLLPEKDLTGFPGPLNDQDNEDCINRHNVYINGITYTPVSSTNEKDMYSFLEDMGLKAFTNSKIRKPKMCPQLQQYEMHGPEGLRVGFYESDVMGRGHARLVHVEEPHTETVRKYFPETWIWDLVVVNSAGVAEVGVTVPDTITEWKAGAFCLSEDAGLGISSTASLRAFQPFFVELTMPYSVIRGEAFTLKATVLNYLPKCIRVSVQLEASPAFLAVPVEKEQAPHCICANGRQTVSWAVTPKSLGNVNFTVSAEALESQELCGTEVPSVPEHGRKDTVIKPLLVEPEGLEKETTFNSLLCPSGGEVSEELSLKLPPNVVEESARASVSVLGDILGSAMQNTQNLLQMPYGCGEQNMVLFAPNIYVLDYLNETQQLTPEIKSKAIGYLNTGYQRQLNYKHYDGSYSTFGERYGRNQGNTWLTAFVLKTFAQARAYIFIDEAHITQALIWLSQRQKDNGCFRSSGSLLNNAIKGGVEDEVTLSAYITIALLEIPLTVTHPVVRNALFCLESAWKTAQEGDHGSHVYTKALLAYAFALAGNQDKRKEVLKSLNEEAVKKDNSVHWERPQKPKAPVGHFYEPQAPSAEVEMTSYVLLAYLTAQPAPTSEDLTSATNIVKWITKQQNAQGGFSSTQDTVVALHALSKYGAATFTRTGKAAQVTIQSSGTFSSKFQVDNNNRLLLQQVSLPELPGEYSMKVTGEGCVYLQTSLKYNILPEKEEFPFALGVQTLPQTCDEPKAHTSFQISLSVSYTGSRSASNMAIVDVKMVSGFIPLKPTVKMLERSNHVSRTEVSSNHVLIYLDKVSNQTLSLFFTVLQDVPVRDLKPAIVKVYDYYETDEFAIAEYNAPCSKDLGNA
modifications: modified by hypochlorite (NaOCl); residues not given
stoichiometry N: 2

— paper PMC7808953 (Redox Biology, 2020)
